The supplement of paper PMC12764529
± gives the half width of the 95% confidence interval.

Key:
[1] = folding stability dG unfold (combined trypsin and chymotrypsin); higher = more stable
Procedure, shortened: (§1)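 Sequencing followed digestion of designed mini-proteins with trypsin and chymotrypsin, each at 11 concentrations in threefold dilutions together with a no-protease condition. The mini-proteins were under 80 residues, had no cysteine, sat in a PA-tagged cDNA display construct, and were kept only if AlphaFold2 dimer inter-PAE was above 15. From the counts, Bayesian fitting gave K50, and unfolding free energy was derived against a sequence-predicted unfolded-state K50 and a shared folded-state K50, per protease or combined.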

[2] = folding stability dG unfold from chymotrypsin proteolysis; higher = more stable
Procedure, shortened: as §1

[3] = folding stability dG unfold from trypsin proteolysis; higher = more stable
Procedure, shortened: as §1

Sequence | folding stability dG unfold [1] | folding stability dG unfold [2] | folding stability dG unfold [3]
SAGGSAGGSAGGIEDMAEKNPDWKIVEPIEIEIPYYNPDGKWYEVEYTIFVIVPPGDEISAGGSAGGSAGGS [r10_0_TrROS] | 1.79 ± 0.23 kcal/mol | 2.12 ± 0.075 kcal/mol | 1.46 ± 0.16 kcal/mol
SAGGSAGGSAGGIGEGTPIERLIEGKPIPFYVDESTGKAYYTLPEDKKIETTIEDPEKVSAGGSAGGSAGGS [r10_1185_TrMRF] | 0.202 ± 0.15 kcal/mol | 0.442 ± 0.22 kcal/mol | -0.377 ± 0.19 kcal/mol
SAGGSAGGSAGGIKKGDKIKIVKVKVEKRYDKDGKLVEERIVSIEEEEIEVPSLEDLLKASAGGSAGGSAGG [r7_439_TrROS_Hall] | 0.654 ± 0.25 kcal/mol | 0.739 ± 0.06 kcal/mol | 0.732 ± 0.14 kcal/mol
SAGGSAGGSAGGIKPGEKPVYKVKIYNEETGEELEVEFKTLEELEKLKIPGVKKIEVEKVSAGGSAGGSAGG [r7_793_TrROS_Hall] | 1.2 ± 0.2 kcal/mol | 1.35 ± 0.045 kcal/mol | 0.786 ± 0.16 kcal/mol
SAGGSAGGSAGGISPSANVKLVAVDPERGLVVAVAKDPNSGSVSVVVFDANGNSSILPASAGGSAGGSAGGS [r10_450_TrMRF] | 0.267 ± 0.043 kcal/mol | 0.495 ± 0.029 kcal/mol | -0.317 ± 0.079 kcal/mol
SAGGSAGGSAGGITPEYVERARKEAQDQYPPGKEREIIIRNPDNGKEITIRYTPDKIEIMSAGGSAGGSAGG [r7_45_TrROS] | -0.147 ± 0.24 kcal/mol | -0.289 ± 0.16 kcal/mol | 0.0182 ± 0.12 kcal/mol
SAGGSAGGSAGGKAKIVDVKIEKEGNTVTIEVKIEVDGKLIATAKVRFTGPDGKLEIEIESAGGSAGGSAGG [r7_133_TrROS_Hall] | 3.15 ± 0.15 kcal/mol | 2.9 ± 0.27 kcal/mol | 3.25 ± 0.16 kcal/mol
SAGGSAGGSAGGKDPYLALKTVRVRLVRDYLLGDKPVKTELIEEADVPVLIVFEPEELLSAGGSAGGSAGGS [r10_492_TrMRF] | 0.441 ± 0.053 kcal/mol | 0.536 ± 0.086 kcal/mol | 0.0714 ± 0.069 kcal/mol
SAGGSAGGSAGGKDVRITVSPNNMRISIWKRDPNDGKWKPIGTIPMPPNDPDKALDQLKSAGGSAGGSAGGS [r10_275_TrROS] | -0.446 ± 0.18 kcal/mol | -1.13 ± 0.91 kcal/mol | -0.216 ± 0.18 kcal/mol
SAGGSAGGSAGGKEEEARKLAEELAKELGLEIVEVKVERTEKEVKVTIRIKKDGKEIEFSAGGSAGGSAGGS [r10_161_TrROS_Hall] | 1.29 ± 0.12 kcal/mol | 1.36 ± 0.025 kcal/mol | 1.09 ± 0.048 kcal/mol
SAGGSAGGSAGGKEITIMMPSPEAIKKLLPPGWKITNIEPIGRDPEDGYPYYMITFKPDSAGGSAGGSAGGS [r10_256_TrROS] | 1.3 ± 0.057 kcal/mol | 1.11 ± 0.042 kcal/mol | 1.43 ± 0.018 kcal/mol
SAGGSAGGSAGGKEKKELYVVIKVDKNMTPEEIAEKLKKEFNVDKVEVEVREDGYLVVKVSAGGSAGGSAGG [r7_273_TrROS_Hall] | 1.62 ± 0.19 kcal/mol | 1.74 ± 0.084 kcal/mol | 1.03 ± 0.098 kcal/mol
SAGGSAGGSAGGKIIVYNPETGKPEEVSPEDLEEIIKNTPGPLILKVGEGEIELNAKDISAGGSAGGSAGGS [r10_839_TrMRF] | 0.828 ± 0.12 kcal/mol | 0.862 ± 0.067 kcal/mol | 0.807 ± 0.051 kcal/mol
SAGGSAGGSAGGKIKDAEIVSVEYDPETGVLYMEVKLEDGSTYRIRFDLKTNKLTIEPVSAGGSAGGSAGGS [r10_674_TrROS_Hall] | 4.56 ± 0.3 kcal/mol | 4.91 ± 0.2 kcal/mol | 3.29 ± 0.36 kcal/mol
